PMC6205638, “Exploring natural genetic variation in tomato sucrose synthases on the basis of increased kinetic properties” (PLoS ONE, 2018)

Target: Tomato sucrose synthase SuSy3-haplotype#1 (cv Moneymaker) (S. lycopersicum cv Moneymaker)
Assay: native gel or EMSA; Native PAGE on Mini-PROTEAN TGX gel 4-20% of the IMAC-purified product; size estimated against a prestained protein ladder

Tomato sucrose synthase SuSy3-haplotype#1 (cv Moneymaker) (enzyme)
stoichiometry N: 4
